In PMC3929782 one finds Kd data, which are given here for one substance.

The assay concerns the target Cy-5-labelled H2A/H2B dimer, wild type (UniProt P02281). As to the kind of experiment: fluorescence polarisation. A general note: In fluorescence polarisation assays a small probe gives low polarisation when free and higher when bound to something large.

What is called Kd is the constant that tells how readily two partners part at equilibrium. A low value points to a tighter complex. With “RNF168 RING domain (residues 1–189) (from UniProt Q8IYW5 1-189) (domain or fragment)”, the Kd worked out at 1000 nM.
